Settings in all cases: protein: recombinant; tags: His tag removed, GSRM left; label: 5' 32P (PNK)
Data set [1] deals with T1, hPIF1HD R294A (human, UniProt Q9H611 206-620, R294A).
T1 sequence: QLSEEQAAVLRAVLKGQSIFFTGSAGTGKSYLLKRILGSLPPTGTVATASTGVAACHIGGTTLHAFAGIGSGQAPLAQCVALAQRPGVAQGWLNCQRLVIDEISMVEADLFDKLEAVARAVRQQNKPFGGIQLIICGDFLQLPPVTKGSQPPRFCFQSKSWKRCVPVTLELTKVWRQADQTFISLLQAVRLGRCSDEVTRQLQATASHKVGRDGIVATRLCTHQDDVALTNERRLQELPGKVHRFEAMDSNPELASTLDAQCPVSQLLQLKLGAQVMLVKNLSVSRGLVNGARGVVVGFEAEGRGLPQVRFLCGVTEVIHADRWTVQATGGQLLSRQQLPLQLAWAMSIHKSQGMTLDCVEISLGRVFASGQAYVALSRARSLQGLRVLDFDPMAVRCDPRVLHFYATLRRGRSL
The data set is described as follows: EMSA; no nucleotide; apparent; 20 mM HEPES-NaOH pH 7.5 (Results say pH 7.2), 135 mM NaCl, 5% glycerol, 1 mM DTT, 1 mg/ml BSA, 20 min at 20 C; 0.4 nM T(35); G4 assay: 0.1 nM G4 DNA, 2% PEG 8000 instead of glycerol, 5 uM T(35) competitor. For orientation: Mobility shift assays separate free from complexed probe on a gel.

In data set [2] the target is T2, hPIF1HD F573A (human, UniProt Q9H611 206-620, F573A).
T2 sequence: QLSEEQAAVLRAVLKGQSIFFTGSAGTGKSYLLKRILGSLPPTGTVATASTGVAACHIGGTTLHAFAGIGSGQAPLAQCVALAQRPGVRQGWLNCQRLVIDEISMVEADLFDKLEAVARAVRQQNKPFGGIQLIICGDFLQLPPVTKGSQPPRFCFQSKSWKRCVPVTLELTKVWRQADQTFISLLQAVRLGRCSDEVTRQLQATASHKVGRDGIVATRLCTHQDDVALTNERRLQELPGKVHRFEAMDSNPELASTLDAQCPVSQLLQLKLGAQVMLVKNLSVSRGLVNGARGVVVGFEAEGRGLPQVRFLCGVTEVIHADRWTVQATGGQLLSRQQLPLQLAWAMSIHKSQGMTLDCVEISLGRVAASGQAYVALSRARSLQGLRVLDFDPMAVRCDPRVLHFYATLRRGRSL
Briefly: EMSA; no nucleotide; 20 mM HEPES-NaOH pH 7.5 (Results say pH 7.2), 135 mM NaCl, 5% glycerol, 1 mM DTT, 1 mg/ml BSA, 20 min at 20 C; 0.4 nM T(35); G4 assay: 0.1 nM G4 DNA, 2% PEG 8000 instead of glycerol, 5 uM T(35) competitor.

For data set [3], the target named is T3, hPIF1HD K485E (human, UniProt Q9H611 206-620, K485E).
T3 sequence: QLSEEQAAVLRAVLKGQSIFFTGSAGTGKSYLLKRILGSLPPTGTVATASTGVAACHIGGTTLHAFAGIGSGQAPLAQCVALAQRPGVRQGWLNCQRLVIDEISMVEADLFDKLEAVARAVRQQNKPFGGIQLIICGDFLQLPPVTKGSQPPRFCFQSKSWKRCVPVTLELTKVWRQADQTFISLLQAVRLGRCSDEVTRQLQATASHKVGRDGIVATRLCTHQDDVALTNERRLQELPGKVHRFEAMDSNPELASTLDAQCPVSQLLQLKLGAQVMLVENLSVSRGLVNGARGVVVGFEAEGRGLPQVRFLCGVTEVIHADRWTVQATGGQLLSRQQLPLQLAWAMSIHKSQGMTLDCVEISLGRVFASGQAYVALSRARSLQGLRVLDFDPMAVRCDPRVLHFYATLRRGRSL
Described as above.

Data set [4] addresses T4, hPIF1HD N486A (human, UniProt Q9H611 206-620, N486A).
T4 sequence: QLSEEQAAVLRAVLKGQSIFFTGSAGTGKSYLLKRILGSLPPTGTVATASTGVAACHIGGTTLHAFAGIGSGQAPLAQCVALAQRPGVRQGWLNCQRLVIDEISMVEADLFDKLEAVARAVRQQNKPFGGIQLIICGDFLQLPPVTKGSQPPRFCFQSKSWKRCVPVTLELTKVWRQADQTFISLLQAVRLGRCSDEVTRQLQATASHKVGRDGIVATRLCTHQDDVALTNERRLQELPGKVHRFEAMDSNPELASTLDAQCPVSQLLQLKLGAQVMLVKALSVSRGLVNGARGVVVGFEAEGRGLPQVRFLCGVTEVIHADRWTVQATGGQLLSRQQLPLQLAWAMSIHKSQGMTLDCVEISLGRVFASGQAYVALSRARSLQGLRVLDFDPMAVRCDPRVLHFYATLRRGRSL
The data set is described as above.

We go through one molecule from article PMC6451128, “Structural and functional analysis of the nucleotide and DNA binding activities of the human PIF1 helicase”.

For TTTTTTTTTTTTTTTTTTTTTTTTTTTTTTTTTTT (ssDNA) [poly-T(35)], the Kd in data set [1] was found to be 5.7 ± 1.6 nM. In addition, the binding signal in data set [2], in data set [3] and in data set [4] was > 50 fold decrease in affinity vs WT each time.
